Legend:
BANP BEN K314A = target: T1, BANP BEN K314A (human, UniProt Q8N9N5 205-325, K314A); assay: ITC; ITC: 20 mM Tris pH 7.5, 200 mM NaCl, 2 mM beta-mercaptoethanol, 20 C; EMSA: 20 mM Tris pH 7.0, 200 mM NaCl, 2 mM DTT, 4 C, 1.2% agarose in TAE; details: protein: recombinant; tags: His-SUMO or His-MBP, cleaved; chain copies: 2; blunt, self-complementary
T1 sequence: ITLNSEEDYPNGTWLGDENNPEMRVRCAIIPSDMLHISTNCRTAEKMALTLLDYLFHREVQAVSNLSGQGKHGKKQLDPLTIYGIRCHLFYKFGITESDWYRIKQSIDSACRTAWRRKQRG

BANP BEN R316A = target: T2, BANP BEN R316A (human, UniProt Q8N9N5 205-325, R316A); assay: as above; details: protein: recombinant; tags: His-SUMO or His-MBP, cleaved; chain copies: 2; blunt, self-complementary
T2 sequence: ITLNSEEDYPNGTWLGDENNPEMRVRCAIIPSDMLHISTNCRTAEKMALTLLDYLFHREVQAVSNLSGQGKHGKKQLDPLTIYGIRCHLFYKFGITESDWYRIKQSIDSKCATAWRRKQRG

BANP full-length WT = target: T3, BANP full-length WT (human, UniProt Q8N9N5 1-519); assay: as above; details: protein: recombinant; tags: His-SUMO or His-MBP, cleaved; chain copies: 4; blunt, self-complementary
T3 sequence: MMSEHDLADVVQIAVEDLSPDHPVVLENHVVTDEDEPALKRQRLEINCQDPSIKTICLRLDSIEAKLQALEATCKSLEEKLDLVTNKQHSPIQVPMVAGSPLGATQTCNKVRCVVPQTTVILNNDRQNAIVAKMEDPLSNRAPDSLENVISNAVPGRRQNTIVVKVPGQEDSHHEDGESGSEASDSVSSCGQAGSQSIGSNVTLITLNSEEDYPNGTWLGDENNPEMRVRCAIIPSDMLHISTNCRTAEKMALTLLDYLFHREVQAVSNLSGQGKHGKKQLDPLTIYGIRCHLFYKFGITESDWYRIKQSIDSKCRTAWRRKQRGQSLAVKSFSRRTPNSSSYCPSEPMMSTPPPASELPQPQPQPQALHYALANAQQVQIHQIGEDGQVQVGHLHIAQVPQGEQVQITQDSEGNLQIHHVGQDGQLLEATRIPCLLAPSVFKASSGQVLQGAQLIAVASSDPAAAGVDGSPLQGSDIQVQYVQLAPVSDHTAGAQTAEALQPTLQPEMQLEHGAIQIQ

BANP DBD = target: T4, BANP DBD (human, UniProt Q8N9N5 361-519); assay: EMSA; ITC: 20 mM Tris pH 7.5, 200 mM NaCl, 2 mM beta-mercaptoethanol, 20 C; EMSA: 20 mM Tris pH 7.0, 200 mM NaCl, 2 mM DTT, 4 C, 1.2% agarose in TAE; details: protein: recombinant; tags: His-SUMO or His-MBP, cleaved; blunt, self-complementary
T4 sequence: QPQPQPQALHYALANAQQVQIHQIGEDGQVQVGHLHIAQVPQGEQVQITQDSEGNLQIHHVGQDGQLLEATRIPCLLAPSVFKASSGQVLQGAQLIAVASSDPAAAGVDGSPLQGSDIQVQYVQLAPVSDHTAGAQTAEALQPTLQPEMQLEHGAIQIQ

BANP BEN WT = target: T5, BANP BEN WT (human, UniProt Q8N9N5 205-325); assay: ITC; text gives 2.5 uM; ITC: 20 mM Tris pH 7.5, 200 mM NaCl, 2 mM beta-mercaptoethanol, 20 C; EMSA: 20 mM Tris pH 7.0, 200 mM NaCl, 2 mM DTT, 4 C, 1.2% agarose in TAE; details: protein: recombinant; tags: His-SUMO or His-MBP, cleaved; chain copies: 2; blunt, self-complementary
T5 sequence: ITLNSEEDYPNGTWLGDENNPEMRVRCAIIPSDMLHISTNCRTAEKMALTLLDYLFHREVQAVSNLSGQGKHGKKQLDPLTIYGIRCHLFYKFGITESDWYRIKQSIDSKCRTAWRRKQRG

B1: 12-CGCG (dsDNA)
DNA 1: ATCTCGCGAGAT
DNA 2: ATCTCGCGAGAT
- Kd (BANP BEN K314A): 25.2 ± 3.8 µM
- Kd (BANP BEN R316A): 16.8 ± 1.6 µM
- Kd (BANP full-length WT): 3.4 ± 0.6 µM
- binding result (BANP DBD): no binding
- Kd (BANP BEN WT): 2.6 ± 0.4 µM

Reference: paper PMC11472053, “Structural basis of DNA recognition by BEN domain proteins reveals a role for oligomerization in unmethylated DNA selection by BANP” (Nucleic Acids Research, 2024)
